Data published in the supplement of paper PMC9112550, “Optimization of the antimicrobial peptide Bac7 by deep mutational scanning” (BMC Biology, 2022).

Test system: Escherichia coli TOP10
Assay: shrunken log2 fold change of peptide-encoding DNA abundance (4.5 h post-induction vs induction); higher = less antimicrobial activity (less host growth inhibition)
Settings: time post-induction: 4.5 h; library: site-saturation at positions 5, 18, 19, 20
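Note: peptides expressed intracellularly from a pBAD plasmid library in pooled LB shake-flask culture, induced with 0.3% L-arabinose, DNA abundance read by NGS, three biological replicates, DESeq2 with apeglm shrinkage.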

Row | Sequence | shrunken log2 fold change
1 | RRIRIRPPRLPRPRPRPLRMPRP | -0.04
2 | RRIRLRPPRLPRPRPRPFDVPRP | -0.0798
3 | RRIRMRPPRLPRPRPRPVGSPRP | 0.99
4 | RRIRYRPPRLPRPRPRPEWWPRP | -0.0484
5 | RRIRQRPPRLPRPRPRPKERPRP | -0.00138
6 | RRIRVRPPRLPRPRPRPISKPRP | -0.184
7 | RRIRVRPPRLPRPRPRPQIVPRP | -0.136
8 | RRIRGRPPRLPRPRPRPRRRPRP | 1.02
9 | RRIRGRPPRLPRPRPRPPHYPRP | 0.523
10 | RRIRLRPPRLPRPRPRPKAPPRP | 0.00522
11 | RRIRTRPPRLPRPRPRPMGVPRP | -0.174
12 | RRIRLRPPRLPRPRPRPSHHPRP | -0.319
13 | RRIRIRPPRLPRPRPRPVERPRP | 0.0257
14 | RRIRPRPPRLPRPRPRPNVWPRP | 0.183
15 | RRIRPRPPRLPRPRPRPWYCPRP | -0.111
16 | RRIRQRPPRLPRPRPRPWQHPRP | -0.0358
17 | RRIRKRPPRLPRPRPRPQWGPRP | 0.227
18 | RRIRIRPPRLPRPRPRPSVTPRP | -0.781
19 | RRIRQRPPRLPRPRPRPEHKPRP | -0.00178
20 | RRIRARPPRLPRPRPRPNNPPRP | 0.0346
21 | RRIRGRPPRLPRPRPRPRSSPRP | 0.128
22 | RRIRMRPPRLPRPRPRPGHTPRP | 0.488
23 | RRIRYRPPRLPRPRPRPYEYPRP | -0.095

Row | Sequence | shrunken log2 fold change
24 | RRIRFRPPRLPRPRPRPVHGPRP | 0.284
25 | RRIRHRPPRLPRPRPRPQWNPRP | -0.281
26 | RRIRQRPPRLPRPRPRPIQWPRP | 0.34
27 | RRIRERPPRLPRPRPRPNQGPRP | -0.348
28 | RRIRCRPPRLPRPRPRPANQPRP | -0.137
29 | RRIRVRPPRLPRPRPRPQYCPRP | -0.095
30 | RRIRTRPPRLPRPRPRPHHIPRP | -0.278
31 | RRIRSRPPRLPRPRPRPYKEPRP | -0.0146
32 | RRIRWRPPRLPRPRPRPYASPRP | -0.121
33 | RRIRHRPPRLPRPRPRPPDTPRP | -0.071
34 | RRIRKRPPRLPRPRPRPTSSPRP | 0.0586
35 | RRIRMRPPRLPRPRPRPTHVPRP | -0.00477
36 | RRIRRRPPRLPRPRPRPKNCPRP | 0.0654
37 | RRIRRRPPRLPRPRPRPFSSPRP | -0.0604
38 | RRIRVRPPRLPRPRPRPKVKPRP | 0.0531
39 | RRIRWRPPRLPRPRPRPDVTPRP | 0.0084
40 | RRIRVRPPRLPRPRPRPGGGPRP | 0.695
41 | RRIRGRPPRLPRPRPRPFFMPRP | 0.374
42 | RRIRCRPPRLPRPRPRPFLHPRP | -0.703
43 | RRIRLRPPRLPRPRPRPDHQPRP | -0.118
44 | RRIRKRPPRLPRPRPRPYVNPRP | -0.526
45 | RRIRGRPPRLPRPRPRPSHNPRP | -0.189
